Reference: the MegaScale stability set (Tsuboyama et al. 2023)

B1: 5KPH (parent)
chain: EEKRQVKQVAKEKLLEQSPNSKVQVRRVQKQGNTIRVELELRTNGKKENYTVEVERQGNTWTVKRITRT

Variants of: B1
Experiment: folding stability dG (cDNA display proteolysis); higher = more stable
Conditions: PBS, room temperature

Variant	folding stability dG
EEKRQVKQVAKEKLLEQSPNSKVQVRSVQKQGNTIRVELELRTNGKKENYTVEVERQGNTWTVKRITRT [R27S]	3.79 kcal/mol
EEKRQVKQVAKEKLLEQSPNSKVQVRTVQKQGNTIRVELELRTNGKKENYTVEVERQGNTWTVKRITRT [R27T]	3.37 kcal/mol
EEKRQVKQVAKEKLLEQSPNSKVQVRVVQKQGNTIRVELELRTNGKKENYTVEVERQGNTWTVKRITRT [R27V]	3.12 kcal/mol
EEKRQVKQVAKEKLLEQSPNSKVQVRWVQKQGNTIRVELELRTNGKKENYTVEVERQGNTWTVKRITRT [R27W]	4.14 kcal/mol
EEKRQVKQVAKEKLLEQSPNSKVQVRYVQKQGNTIRVELELRTNGKKENYTVEVERQGNTWTVKRITRT [R27Y]	3.72 kcal/mol
EEKRQVKQVAKEKLLEQSPNSKVQVRRAQKQGNTIRVELELRTNGKKENYTVEVERQGNTWTVKRITRT [V28A]	3.15 kcal/mol
EEKRQVKQVAKEKLLEQSPNSKVQVRRCQKQGNTIRVELELRTNGKKENYTVEVERQGNTWTVKRITRT [V28C]	3.4 kcal/mol
EEKRQVKQVAKEKLLEQSPNSKVQVRRDQKQGNTIRVELELRTNGKKENYTVEVERQGNTWTVKRITRT [V28D]	1.44 kcal/mol
EEKRQVKQVAKEKLLEQSPNSKVQVRREQKQGNTIRVELELRTNGKKENYTVEVERQGNTWTVKRITRT [V28E]	1.75 kcal/mol
EEKRQVKQVAKEKLLEQSPNSKVQVRRFQKQGNTIRVELELRTNGKKENYTVEVERQGNTWTVKRITRT [V28F]	3.91 kcal/mol
EEKRQVKQVAKEKLLEQSPNSKVQVRRGQKQGNTIRVELELRTNGKKENYTVEVERQGNTWTVKRITRT [V28G]	1.87 kcal/mol
EEKRQVKQVAKEKLLEQSPNSKVQVRRHQKQGNTIRVELELRTNGKKENYTVEVERQGNTWTVKRITRT [V28H]	2.16 kcal/mol
EEKRQVKQVAKEKLLEQSPNSKVQVRRIQKQGNTIRVELELRTNGKKENYTVEVERQGNTWTVKRITRT [V28I]	3.99 kcal/mol
EEKRQVKQVAKEKLLEQSPNSKVQVRRKQKQGNTIRVELELRTNGKKENYTVEVERQGNTWTVKRITRT [V28K]	1.74 kcal/mol
EEKRQVKQVAKEKLLEQSPNSKVQVRRLQKQGNTIRVELELRTNGKKENYTVEVERQGNTWTVKRITRT [V28L]	4.03 kcal/mol
EEKRQVKQVAKEKLLEQSPNSKVQVRRMQKQGNTIRVELELRTNGKKENYTVEVERQGNTWTVKRITRT [V28M]	4.12 kcal/mol
EEKRQVKQVAKEKLLEQSPNSKVQVRRNQKQGNTIRVELELRTNGKKENYTVEVERQGNTWTVKRITRT [V28N]	1.55 kcal/mol
EEKRQVKQVAKEKLLEQSPNSKVQVRRPQKQGNTIRVELELRTNGKKENYTVEVERQGNTWTVKRITRT [V28P]	1.34 kcal/mol
EEKRQVKQVAKEKLLEQSPNSKVQVRRQQKQGNTIRVELELRTNGKKENYTVEVERQGNTWTVKRITRT [V28Q]	2.53 kcal/mol
EEKRQVKQVAKEKLLEQSPNSKVQVRRRQKQGNTIRVELELRTNGKKENYTVEVERQGNTWTVKRITRT [V28R]	1.56 kcal/mol
EEKRQVKQVAKEKLLEQSPNSKVQVRRSQKQGNTIRVELELRTNGKKENYTVEVERQGNTWTVKRITRT [V28S]	2.5 kcal/mol
EEKRQVKQVAKEKLLEQSPNSKVQVRRTQKQGNTIRVELELRTNGKKENYTVEVERQGNTWTVKRITRT [V28T]	3.24 kcal/mol
EEKRQVKQVAKEKLLEQSPNSKVQVRRWQKQGNTIRVELELRTNGKKENYTVEVERQGNTWTVKRITRT [V28W]	3.85 kcal/mol
EEKRQVKQVAKEKLLEQSPNSKVQVRRYQKQGNTIRVELELRTNGKKENYTVEVERQGNTWTVKRITRT [V28Y]	4.35 kcal/mol
EEKRQVKQVAKEKLLEQSPNSKVQVRRVAKQGNTIRVELELRTNGKKENYTVEVERQGNTWTVKRITRT [Q29A]	3.84 kcal/mol
EEKRQVKQVAKEKLLEQSPNSKVQVRRVCKQGNTIRVELELRTNGKKENYTVEVERQGNTWTVKRITRT [Q29C]	3.9 kcal/mol

Variant	folding stability dG
EEKRQVKQVAKEKLLEQSPNSKVQVRRVDKQGNTIRVELELRTNGKKENYTVEVERQGNTWTVKRITRT [Q29D]	3.75 kcal/mol
EEKRQVKQVAKEKLLEQSPNSKVQVRRVEKQGNTIRVELELRTNGKKENYTVEVERQGNTWTVKRITRT [Q29E]	3.96 kcal/mol
EEKRQVKQVAKEKLLEQSPNSKVQVRRVFKQGNTIRVELELRTNGKKENYTVEVERQGNTWTVKRITRT [Q29F]	4.45 kcal/mol
EEKRQVKQVAKEKLLEQSPNSKVQVRRVGKQGNTIRVELELRTNGKKENYTVEVERQGNTWTVKRITRT [Q29G]	3.42 kcal/mol
EEKRQVKQVAKEKLLEQSPNSKVQVRRVHKQGNTIRVELELRTNGKKENYTVEVERQGNTWTVKRITRT [Q29H]	4.18 kcal/mol
EEKRQVKQVAKEKLLEQSPNSKVQVRRVIKQGNTIRVELELRTNGKKENYTVEVERQGNTWTVKRITRT [Q29I]	4.24 kcal/mol
EEKRQVKQVAKEKLLEQSPNSKVQVRRVKKQGNTIRVELELRTNGKKENYTVEVERQGNTWTVKRITRT [Q29K]	3.75 kcal/mol
EEKRQVKQVAKEKLLEQSPNSKVQVRRVLKQGNTIRVELELRTNGKKENYTVEVERQGNTWTVKRITRT [Q29L]	4.26 kcal/mol
EEKRQVKQVAKEKLLEQSPNSKVQVRRVMKQGNTIRVELELRTNGKKENYTVEVERQGNTWTVKRITRT [Q29M]	4.3 kcal/mol
EEKRQVKQVAKEKLLEQSPNSKVQVRRVNKQGNTIRVELELRTNGKKENYTVEVERQGNTWTVKRITRT [Q29N]	3.83 kcal/mol
EEKRQVKQVAKEKLLEQSPNSKVQVRRVPKQGNTIRVELELRTNGKKENYTVEVERQGNTWTVKRITRT [Q29P]	1.02 kcal/mol
EEKRQVKQVAKEKLLEQSPNSKVQVRRVRKQGNTIRVELELRTNGKKENYTVEVERQGNTWTVKRITRT [Q29R]	4.17 kcal/mol
EEKRQVKQVAKEKLLEQSPNSKVQVRRVSKQGNTIRVELELRTNGKKENYTVEVERQGNTWTVKRITRT [Q29S]	4.22 kcal/mol
EEKRQVKQVAKEKLLEQSPNSKVQVRRVTKQGNTIRVELELRTNGKKENYTVEVERQGNTWTVKRITRT [Q29T]	4.33 kcal/mol
EEKRQVKQVAKEKLLEQSPNSKVQVRRVVKQGNTIRVELELRTNGKKENYTVEVERQGNTWTVKRITRT [Q29V]	4.08 kcal/mol
EEKRQVKQVAKEKLLEQSPNSKVQVRRVWKQGNTIRVELELRTNGKKENYTVEVERQGNTWTVKRITRT [Q29W]	4.58 kcal/mol
EEKRQVKQVAKEKLLEQSPNSKVQVRRVYKQGNTIRVELELRTNGKKENYTVEVERQGNTWTVKRITRT [Q29Y]	4.51 kcal/mol
EEKRQVKQVAKEKLLEQSPNSKVQVRRVQAQGNTIRVELELRTNGKKENYTVEVERQGNTWTVKRITRT [K30A]	4.22 kcal/mol
EEKRQVKQVAKEKLLEQSPNSKVQVRRVQCQGNTIRVELELRTNGKKENYTVEVERQGNTWTVKRITRT [K30C]	3.69 kcal/mol
EEKRQVKQVAKEKLLEQSPNSKVQVRRVQDQGNTIRVELELRTNGKKENYTVEVERQGNTWTVKRITRT [K30D]	3.8 kcal/mol
EEKRQVKQVAKEKLLEQSPNSKVQVRRVQEQGNTIRVELELRTNGKKENYTVEVERQGNTWTVKRITRT [K30E]	3.78 kcal/mol
EEKRQVKQVAKEKLLEQSPNSKVQVRRVQFQGNTIRVELELRTNGKKENYTVEVERQGNTWTVKRITRT [K30F]	4.62 kcal/mol
EEKRQVKQVAKEKLLEQSPNSKVQVRRVQGQGNTIRVELELRTNGKKENYTVEVERQGNTWTVKRITRT [K30G]	4.08 kcal/mol
EEKRQVKQVAKEKLLEQSPNSKVQVRRVQHQGNTIRVELELRTNGKKENYTVEVERQGNTWTVKRITRT [K30H]	4.05 kcal/mol
EEKRQVKQVAKEKLLEQSPNSKVQVRRVQIQGNTIRVELELRTNGKKENYTVEVERQGNTWTVKRITRT [K30I]	4.35 kcal/mol
EEKRQVKQVAKEKLLEQSPNSKVQVRRVQLQGNTIRVELELRTNGKKENYTVEVERQGNTWTVKRITRT [K30L]	4.03 kcal/mol

Variant	folding stability dG
EEKRQVKQVAKEKLLEQSPNSKVQVRRVQMQGNTIRVELELRTNGKKENYTVEVERQGNTWTVKRITRT [K30M]	4.28 kcal/mol
EEKRQVKQVAKEKLLEQSPNSKVQVRRVQNQGNTIRVELELRTNGKKENYTVEVERQGNTWTVKRITRT [K30N]	3.76 kcal/mol
EEKRQVKQVAKEKLLEQSPNSKVQVRRVQPQGNTIRVELELRTNGKKENYTVEVERQGNTWTVKRITRT [K30P]	3.79 kcal/mol
EEKRQVKQVAKEKLLEQSPNSKVQVRRVQQQGNTIRVELELRTNGKKENYTVEVERQGNTWTVKRITRT [K30Q]	4.25 kcal/mol
EEKRQVKQVAKEKLLEQSPNSKVQVRRVQRQGNTIRVELELRTNGKKENYTVEVERQGNTWTVKRITRT [K30R]	4 kcal/mol
EEKRQVKQVAKEKLLEQSPNSKVQVRRVQSQGNTIRVELELRTNGKKENYTVEVERQGNTWTVKRITRT [K30S]	4.32 kcal/mol
EEKRQVKQVAKEKLLEQSPNSKVQVRRVQTQGNTIRVELELRTNGKKENYTVEVERQGNTWTVKRITRT [K30T]	4.14 kcal/mol
EEKRQVKQVAKEKLLEQSPNSKVQVRRVQVQGNTIRVELELRTNGKKENYTVEVERQGNTWTVKRITRT [K30V]	4.33 kcal/mol
EEKRQVKQVAKEKLLEQSPNSKVQVRRVQWQGNTIRVELELRTNGKKENYTVEVERQGNTWTVKRITRT [K30W]	4.64 kcal/mol
EEKRQVKQVAKEKLLEQSPNSKVQVRRVQYQGNTIRVELELRTNGKKENYTVEVERQGNTWTVKRITRT [K30Y]	4.7 kcal/mol
EEKRQVKQVAKEKLLEQSPNSKVQVRRVQKAGNTIRVELELRTNGKKENYTVEVERQGNTWTVKRITRT [Q31A]	3.75 kcal/mol
EEKRQVKQVAKEKLLEQSPNSKVQVRRVQKCGNTIRVELELRTNGKKENYTVEVERQGNTWTVKRITRT [Q31C]	3.92 kcal/mol
EEKRQVKQVAKEKLLEQSPNSKVQVRRVQKDGNTIRVELELRTNGKKENYTVEVERQGNTWTVKRITRT [Q31D]	3.89 kcal/mol
EEKRQVKQVAKEKLLEQSPNSKVQVRRVQKEGNTIRVELELRTNGKKENYTVEVERQGNTWTVKRITRT [Q31E]	4.05 kcal/mol
EEKRQVKQVAKEKLLEQSPNSKVQVRRVQKFGNTIRVELELRTNGKKENYTVEVERQGNTWTVKRITRT [Q31F]	4.21 kcal/mol
EEKRQVKQVAKEKLLEQSPNSKVQVRRVQKGGNTIRVELELRTNGKKENYTVEVERQGNTWTVKRITRT [Q31G]	3.13 kcal/mol
EEKRQVKQVAKEKLLEQSPNSKVQVRRVQKHGNTIRVELELRTNGKKENYTVEVERQGNTWTVKRITRT [Q31H]	4.3 kcal/mol
EEKRQVKQVAKEKLLEQSPNSKVQVRRVQKIGNTIRVELELRTNGKKENYTVEVERQGNTWTVKRITRT [Q31I]	4.42 kcal/mol
EEKRQVKQVAKEKLLEQSPNSKVQVRRVQKKGNTIRVELELRTNGKKENYTVEVERQGNTWTVKRITRT [Q31K]	3.83 kcal/mol
EEKRQVKQVAKEKLLEQSPNSKVQVRRVQKLGNTIRVELELRTNGKKENYTVEVERQGNTWTVKRITRT [Q31L]	4.27 kcal/mol
EEKRQVKQVAKEKLLEQSPNSKVQVRRVQKMGNTIRVELELRTNGKKENYTVEVERQGNTWTVKRITRT [Q31M]	4.47 kcal/mol
EEKRQVKQVAKEKLLEQSPNSKVQVRRVQKNGNTIRVELELRTNGKKENYTVEVERQGNTWTVKRITRT [Q31N]	3.84 kcal/mol
EEKRQVKQVAKEKLLEQSPNSKVQVRRVQKPGNTIRVELELRTNGKKENYTVEVERQGNTWTVKRITRT [Q31P]	1.87 kcal/mol
EEKRQVKQVAKEKLLEQSPNSKVQVRRVQKRGNTIRVELELRTNGKKENYTVEVERQGNTWTVKRITRT [Q31R]	4.05 kcal/mol
EEKRQVKQVAKEKLLEQSPNSKVQVRRVQKSGNTIRVELELRTNGKKENYTVEVERQGNTWTVKRITRT [Q31S]	4.03 kcal/mol
EEKRQVKQVAKEKLLEQSPNSKVQVRRVQKTGNTIRVELELRTNGKKENYTVEVERQGNTWTVKRITRT [Q31T]	4.12 kcal/mol
